The record followed here is PMC4133371.

The assay addresses endogenous E-cadherin (dog (endogenous in MDCK)). Description: co-IP; endogenous E-cadherin collected by antibodies to its extracellular part from lysates of MDCK cells expressing DsRed, DECT, DECTSA, DECTN or DECTC; immunoblot with anti-β-catenin or anti-plakoglobin; bands quantified with NIH Image as percent of DsRed cells. (A western blot detects proteins with antibodies after separation by electrophoresis.)

Chain of endogenous E-cadherin (dog (endogenous in MDCK)) (F1PAA9 27-885): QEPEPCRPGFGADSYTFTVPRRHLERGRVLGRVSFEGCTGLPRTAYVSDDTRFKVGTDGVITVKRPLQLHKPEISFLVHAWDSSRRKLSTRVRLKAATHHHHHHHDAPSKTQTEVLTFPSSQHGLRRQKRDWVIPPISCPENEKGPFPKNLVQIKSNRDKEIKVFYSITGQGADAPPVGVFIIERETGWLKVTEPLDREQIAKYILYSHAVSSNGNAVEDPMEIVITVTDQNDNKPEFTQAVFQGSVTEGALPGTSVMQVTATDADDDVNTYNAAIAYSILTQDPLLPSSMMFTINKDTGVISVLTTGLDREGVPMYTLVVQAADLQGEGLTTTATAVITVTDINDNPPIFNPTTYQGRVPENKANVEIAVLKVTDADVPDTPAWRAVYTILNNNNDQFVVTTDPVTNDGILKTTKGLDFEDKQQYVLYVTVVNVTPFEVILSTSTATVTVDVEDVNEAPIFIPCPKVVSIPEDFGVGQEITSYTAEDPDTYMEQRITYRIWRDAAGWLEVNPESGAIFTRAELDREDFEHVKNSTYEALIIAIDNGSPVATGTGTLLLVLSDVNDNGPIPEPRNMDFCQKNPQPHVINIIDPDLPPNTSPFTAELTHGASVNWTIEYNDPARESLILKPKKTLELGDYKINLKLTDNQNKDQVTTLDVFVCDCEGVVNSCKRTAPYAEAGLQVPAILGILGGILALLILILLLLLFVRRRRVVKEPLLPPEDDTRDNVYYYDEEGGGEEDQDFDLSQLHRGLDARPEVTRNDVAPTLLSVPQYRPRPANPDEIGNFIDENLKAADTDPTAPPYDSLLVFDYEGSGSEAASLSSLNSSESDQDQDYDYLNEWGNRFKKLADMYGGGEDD

Molecule plakoglobin (natural protein) showed a percent co-precipitated with endogenous E-cadherin relative to DsRed cells (cells expressing DECT) of 33%, a percent co-precipitated with endogenous E-cadherin relative to DsRed cells (cells expressing DECTC) of 187%, a percent co-precipitated with endogenous E-cadherin relative to DsRed cells (cells expressing DECTN) of 100% and a percent co-precipitated with endogenous E-cadherin relative to DsRed cells (cells expressing DsRed) of 100%.

B1: β-catenin (natural protein)
chain: MATQADLMELDMAMEPDRKAAVSHWQQQSYLDSGIHSGATTTAPSLSGKGNPEEEDVDTTQVLYEWEQGFSQSFTQEQVADIDGQYAMTRAQRVRAAMFPETLDEGMQIPSTQFDAAHPTNVQRLAEPSQMLKHAVVNLINYQDDAELATRAIPELTKLLNDEDQVVVNKAAVMVHQLSKKEASRHAIMRSPQMVSAIVRTMQNTNDVETARCTAGTLHNLSHHREGLLAIFKSGGIPALVKMLGSPVDSVLFYAITTLHNLLLHQEGAKMAVRLAGGLQKMVALLNKTNVKFLAITTDCLQILAYGNQESKLIILASGGPQALVNIMRTYTYEKLLWTTSRVLKVLSVCSSNKPAIVEAGGMQALGLHLTDPSQRLVQNCLWTLRNLSDAATKQEGMEGLLGTLVQLLGSDDINVVTCAAGILSNLTCNNYKNKMMVCQVGGIEALVRTVLRAGDREDITEPAICALRHLTSRHQEAEMAQNAVRLHYGLPVVVKLLHPPSHWPLIKATVGLIRNLALCPANHAPLREQGAIPRLVQLLVRAHQDTQRRTSMGGTQQQFVEGVRMEEIVEGCTGALHILARDVHNRIVIRGLNTIPLFVQLLYSPIENIQRVAAGVLCELAQDKEAAEAIEAEGATAPLTELLHSRNEGVATYAAAVLFRMSEDKPQDYKKRLSVELTSSLFRTEPMAWNETADLGLDIGAQGEPLGYRQDDPSYRSFHSGGYGQDALGMDPMMEHEMGGHHPGADYPVDGLPDLGHAQDLMDGLPPGDSNQLAWFDTDL
Take B1: the percent co-precipitated with endogenous E-cadherin relative to DsRed cells (cells expressing DECT) was found to be 4%, the percent co-precipitated with endogenous E-cadherin relative to DsRed cells (cells expressing DECTC) turned out to be 24%, the percent co-precipitated with endogenous E-cadherin relative to DsRed cells (cells expressing DECTN) came out at 102% and the percent co-precipitated with endogenous E-cadherin relative to DsRed cells (cells expressing DsRed) was 100%.
